Data on 1 molecule can be found in patent US20180148504A1.

Assay [1] deals with recombinant purified FRα (ECL assay calibrator) (human) (UniProt P15328). Description: ECL sandwich competition; competitors 9F3 capture / 24F12 detection; FRα standard STD01; MORAb-003 50 µg/mL.
For assay [2] the target is unchanged. The assay is described as follows: ECL sandwich competition; competitors 9F3 capture / 24F12 detection; FRα standard STD04; MORAb-003 50 µg/mL.
Assay [3] has the same target. The assay is described as follows: ECL sandwich competition; competitors 9F3 capture / 24F12 detection; FRα standard STD06; MORAb-003 50 µg/mL.
Assay [4] shares this target. Description: ECL sandwich competition; competitors 9F3 capture / 24F12 detection; FRα standard STD07; MORAb-003 50 µg/mL.
Assay [5] addresses endogenous folate receptor alpha in human serum and plasma samples (human) (UniProt P15328). The assay is described as follows: ECL sandwich capture 19D2.G9 / detection 26A9.C4; serum incubated overnight with 10 µg/mL MORAb-003.
The target is the same in assay [6]. The assay is described as follows: ECL sandwich capture 28H12.G9 / detection 19D4.B7; serum incubated overnight with 10 µg/mL MORAb-003.
Assay [7] has as its target recombinant purified FRα (ECL assay calibrator) (human) (UniProt P15328). The assay is described as follows: ECL sandwich capture 24H8.F3 / detection 6A2.G7; calibrator incubated overnight with 10 µg/mL MORAb-003.
In assay [8] the target is endogenous folate receptor alpha in human serum and plasma samples (human) (UniProt P15328). The assay is described as follows: ECL sandwich capture 19D4.B7 / detection 1C6.E12.G8; serum incubated overnight with 10 µg/mL MORAb-003.
Sequence of endogenous folate receptor alpha in human serum and plasma samples (human) (P15328 25-234 limits assumed, form in doubt): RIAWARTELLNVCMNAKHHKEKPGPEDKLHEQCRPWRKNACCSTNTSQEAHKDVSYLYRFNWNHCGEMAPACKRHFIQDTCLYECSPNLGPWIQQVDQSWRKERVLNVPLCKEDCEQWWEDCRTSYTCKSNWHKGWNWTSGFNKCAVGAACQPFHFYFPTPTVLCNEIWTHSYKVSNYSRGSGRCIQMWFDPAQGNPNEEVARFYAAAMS
Assay [9] shares this target. The assay is described as follows: ECL sandwich capture 1D2.G8.G10 / detection 19D4.B7; serum incubated overnight with 10 µg/mL MORAb-003.
For assay [10], the target named is recombinant purified FRα (ECL assay calibrator) (human) (UniProt P15328). The assay is described as follows: ECL sandwich capture 19D4.B7 / detection 24H8.F3; calibrator incubated overnight with 10 µg/mL MORAb-003.
For assay [11] the target is unchanged. Description: ECL sandwich capture 19D4.B7 / detection 28H12.G9; calibrator incubated overnight with 10 µg/mL MORAb-003.
The target is the same in assay [12]. Description: ECL sandwich capture 6A2.G7 / detection 1A8.G11.E7; calibrator incubated overnight with 10 µg/mL MORAb-003.
For assay [13] the target is unchanged. Description: ECL sandwich capture 19D4.B7 / detection 1D2.G8.G10; calibrator incubated overnight with 10 µg/mL MORAb-003.
Assay [14] shares this target. The assay is described as follows: ECL sandwich capture 19D4.B7 / detection 1A8.G11.E7; calibrator incubated overnight with 10 µg/mL MORAb-003.
The target is the same in assay [15]. The assay is described as follows: ECL sandwich capture 26A9.C4 / detection 30G6.G6.G4.E9; calibrator incubated overnight with 10 µg/mL MORAb-003.
Assay [16] shares this target. Description: ECL sandwich capture 30G6.G6.G4.E9 / detection 19D2.G9; calibrator incubated overnight with 10 µg/mL MORAb-003.
Assay [17] has the same target. The assay is described as follows: ECL sandwich capture 30G6.G6.G4.E9 / detection 24H8.D3; calibrator incubated overnight with 10 µg/mL MORAb-003.
For assay [18] the target is unchanged. Description: ECL sandwich capture 30G6.G6.G4.E9 / detection 2F11.F8; calibrator incubated overnight with 10 µg/mL MORAb-003.
Assay [19] has the same target. Description: ECL sandwich capture 30G6.G6.G4.E9 / detection 28H12.G9; calibrator incubated overnight with 10 µg/mL MORAb-003.
For assay [20] the target is unchanged. Description: ECL sandwich capture 1A8.G11.E7 / detection 30G6.G6.G4.E9; calibrator incubated overnight with 10 µg/mL MORAb-003.
For assay [21] the target is unchanged. The assay is described as follows: ECL sandwich capture 30G6.G6.G4.E9 / detection 1A8.G11.E7; calibrator incubated overnight with 10 µg/mL MORAb-003.
Assay [22] has the same target. Description: ECL sandwich, positive control +CONT: capture 26B3.F2 (f1) / detection 19D4.B7; calibrator incubated overnight with 10 µg/mL MORAb-003.

Sequence of recombinant purified FRα (ECL assay calibrator) (human) (P15328 25-234 limits assumed): as the sequence (P15328 25-234 limits assumed, form in doubt) above

B1: farletuzumab (MORAb-003) (antibody, part only; not given: Constant regions, V domains shown, not shown: another chain or arm of the molecule)
VH: EVQLVESGGGVVQPGRSLRLSCSASGFTFSGYGLSWVRQAPGKGLEWVAMISSGGSYTYYADSVKGRFAISRDNAKNTLFLQMDSLRPEDTGVYFCARHGDDPAWFAYWGQGTPVTVSS
VL: DIQLTQSPSSLSASVGDRVTITCSVSSSISSNNLHWYQQKPGKAPKPWIYGTSNLASGVPSRFSGSGSGTDYTFTISSLQPEDIATYYCQQWSSYPYMYTFGQGTKVEIK
Regarding B1, the % of signal without MORAb-003 (MORAb-003 interference) in assay [1] was found to be 54%; in assay [2], 57%; in assay [3] it was 78%; in assay [4], 88%. The Drug suppression of serum in assay [5] was -55.6%; in assay [6] it was -73.2%; in [8], -6.01%; in assay [9], 84.6%. The Drug Suppression of Cal Signal at 500 pg/mL in [7] was 7%; in assay [10] it was -14%; in assay [11] it was -21%; in assay [12], 2%; in assay [13], 2%; in assay [14] it was -2%. Moreover, the Drug Suppression of Cal Signal at 500 pg/mL in [15] is -28%; in assay [16], -5%; in assay [17], -2%; in assay [18], -1%; in assay [19], -15%; in assay [20], -6%. Further, the Drug Suppression of Cal Signal at 500 pg/mL is 2% in assay [21] and -5% in [22].
